Sequences and labels used below:
T1: human neuropeptide Y2 receptor (human, UniProt P49146 1-381)
T1 construct: whole, on cells; also called hNPY2 receptor; hNPY2-R
T1 sequence (looked up): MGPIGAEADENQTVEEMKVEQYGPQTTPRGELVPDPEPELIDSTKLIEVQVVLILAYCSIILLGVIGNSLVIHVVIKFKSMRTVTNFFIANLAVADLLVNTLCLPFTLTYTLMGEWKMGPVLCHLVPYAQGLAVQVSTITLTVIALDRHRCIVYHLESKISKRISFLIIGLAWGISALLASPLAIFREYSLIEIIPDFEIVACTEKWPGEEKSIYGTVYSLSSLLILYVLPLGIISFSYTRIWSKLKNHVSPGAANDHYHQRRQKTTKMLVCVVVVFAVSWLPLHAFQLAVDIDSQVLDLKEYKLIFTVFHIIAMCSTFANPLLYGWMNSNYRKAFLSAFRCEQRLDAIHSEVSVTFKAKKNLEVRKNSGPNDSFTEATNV

B1: Compound 213 (peptide)
peptide: Isovaleryl-APEK([AEEA-AEEA-γGlu-C18 diacid])PEEETSPEELQRYYVSLRHYYNWLTRQRY-NH2
SMILES: CC(C)CC(=O)N[C@@H](C)C(=O)N1CCC[C@H]1C(=O)N[C@@H](CCC(=O)O)C(=O)N[C@@H](CCCCNC(=O)COCCOCCNC(=O)COCCOCCNC(=O)CC[C@H](NC(=O)CCCCCCCCCCCCCCCCC(=O)O)C(=O)O)C(=O)N1CCC[C@H]1C(=O)N[C@@H](CCC(=O)O)C(=O)N[C@@H](CCC(=O)O)C(=O)N[C@@H](CCC(=O)O)C(=O)N[C@H](C(=O)N[C@@H](CO)C(=O)N1CCC[C@H]1C(=O)N[C@@H](CCC(=O)O)C(=O)N[C@@H](CCC(=O)O)C(=O)N[C@@H](CC(C)C)C(=O)N[C@@H](CCC(N)=O)C(=O)N[C@@H](CCCNC(=N)N)C(=O)N[C@@H](Cc1ccc(O)cc1)C(=O)N[C@@H](Cc1ccc(O)cc1)C(=O)N[C@H](C(=O)N[C@@H](CO)C(=O)N[C@@H](CC(C)C)C(=O)N[C@@H](CCCNC(=N)N)C(=O)N[C@@H](Cc1c[nH]cn1)C(=O)N[C@@H](Cc1ccc(O)cc1)C(=O)N[C@@H](Cc1ccc(O)cc1)C(=O)N[C@@H](CC(N)=O)C(=O)N[C@@H](Cc1c[nH]c2ccccc12)C(=O)N[C@@H](CC(C)C)C(=O)N[C@H](C(=O)N[C@@H](CCCNC(=N)N)C(=O)N[C@@H](CCC(N)=O)C(=O)N[C@@H](CCCNC(=N)N)C(=O)N[C@@H](Cc1ccc(O)cc1)C(N)=O)[C@@H](C)O)C(C)C)[C@@H](C)O
B2: Compound 215 (peptide)
peptide: Isovaleryl-APEK([AEEA-AEEA-γGlu-C18 diacid])PEEDASPAELQRYYVELRHYYNWLTRQRY-NH2
SMILES: CC(C)CC(=O)N[C@@H](C)C(=O)N1CCC[C@H]1C(=O)N[C@@H](CCC(=O)O)C(=O)N[C@@H](CCCCNC(=O)COCCOCCNC(=O)COCCOCCNC(=O)CC[C@H](NC(=O)CCCCCCCCCCCCCCCCC(=O)O)C(=O)O)C(=O)N1CCC[C@H]1C(=O)N[C@@H](CCC(=O)O)C(=O)N[C@@H](CCC(=O)O)C(=O)N[C@@H](CC(=O)O)C(=O)N[C@@H](C)C(=O)N[C@@H](CO)C(=O)N1CCC[C@H]1C(=O)N[C@@H](C)C(=O)N[C@@H](CCC(=O)O)C(=O)N[C@@H](CC(C)C)C(=O)N[C@@H](CCC(N)=O)C(=O)N[C@@H](CCCNC(=N)N)C(=O)N[C@@H](Cc1ccc(O)cc1)C(=O)N[C@@H](Cc1ccc(O)cc1)C(=O)N[C@H](C(=O)N[C@@H](CCC(=O)O)C(=O)N[C@@H](CC(C)C)C(=O)N[C@@H](CCCNC(=N)N)C(=O)N[C@@H](Cc1c[nH]cn1)C(=O)N[C@@H](Cc1ccc(O)cc1)C(=O)N[C@@H](Cc1ccc(O)cc1)C(=O)N[C@@H](CC(N)=O)C(=O)N[C@@H](Cc1c[nH]c2ccccc12)C(=O)N[C@@H](CC(C)C)C(=O)N[C@H](C(=O)N[C@@H](CCCNC(=N)N)C(=O)N[C@@H](CCC(N)=O)C(=O)N[C@@H](CCCNC(=N)N)C(=O)N[C@@H](Cc1ccc(O)cc1)C(N)=O)[C@@H](C)O)C(C)C
B3: Compound 219 (peptide)
peptide: Isovaleryl-APEK([AEEA-AEEA-γGlu-C18 diacid])PEEEAAPEELQRYYVSLRHYYNWLTRQRY-NH2
SMILES: CC(C)CC(=O)N[C@@H](C)C(=O)N1CCC[C@H]1C(=O)N[C@@H](CCC(=O)O)C(=O)N[C@@H](CCCCNC(=O)COCCOCCNC(=O)COCCOCCNC(=O)CC[C@H](NC(=O)CCCCCCCCCCCCCCCCC(=O)O)C(=O)O)C(=O)N1CCC[C@H]1C(=O)N[C@@H](CCC(=O)O)C(=O)N[C@@H](CCC(=O)O)C(=O)N[C@@H](CCC(=O)O)C(=O)N[C@@H](C)C(=O)N[C@@H](C)C(=O)N1CCC[C@H]1C(=O)N[C@@H](CCC(=O)O)C(=O)N[C@@H](CCC(=O)O)C(=O)N[C@@H](CC(C)C)C(=O)N[C@@H](CCC(N)=O)C(=O)N[C@@H](CCCNC(=N)N)C(=O)N[C@@H](Cc1ccc(O)cc1)C(=O)N[C@@H](Cc1ccc(O)cc1)C(=O)N[C@H](C(=O)N[C@@H](CO)C(=O)N[C@@H](CC(C)C)C(=O)N[C@@H](CCCNC(=N)N)C(=O)N[C@@H](Cc1c[nH]cn1)C(=O)N[C@@H](Cc1ccc(O)cc1)C(=O)N[C@@H](Cc1ccc(O)cc1)C(=O)N[C@@H](CC(N)=O)C(=O)N[C@@H](Cc1c[nH]c2ccccc12)C(=O)N[C@@H](CC(C)C)C(=O)N[C@H](C(=O)N[C@@H](CCCNC(=N)N)C(=O)N[C@@H](CCC(N)=O)C(=O)N[C@@H](CCCNC(=N)N)C(=O)N[C@@H](Cc1ccc(O)cc1)C(N)=O)[C@@H](C)O)C(C)C
B4: Compound 220 (peptide)
peptide: Isovaleryl-APEK([AEEA-AEEA-γGlu-C18 diacid])PEEAASAEELQRYYVSLRHYYNWLTRQRY-NH2
SMILES: CC(C)CC(=O)N[C@@H](C)C(=O)N1CCC[C@H]1C(=O)N[C@@H](CCC(=O)O)C(=O)N[C@@H](CCCCNC(=O)COCCOCCNC(=O)COCCOCCNC(=O)CC[C@H](NC(=O)CCCCCCCCCCCCCCCCC(=O)O)C(=O)O)C(=O)N1CCC[C@H]1C(=O)N[C@@H](CCC(=O)O)C(=O)N[C@@H](CCC(=O)O)C(=O)N[C@@H](C)C(=O)N[C@@H](C)C(=O)N[C@@H](CO)C(=O)N[C@@H](C)C(=O)N[C@@H](CCC(=O)O)C(=O)N[C@@H](CCC(=O)O)C(=O)N[C@@H](CC(C)C)C(=O)N[C@@H](CCC(N)=O)C(=O)N[C@@H](CCCNC(=N)N)C(=O)N[C@@H](Cc1ccc(O)cc1)C(=O)N[C@@H](Cc1ccc(O)cc1)C(=O)N[C@H](C(=O)N[C@@H](CO)C(=O)N[C@@H](CC(C)C)C(=O)N[C@@H](CCCNC(=N)N)C(=O)N[C@@H](Cc1c[nH]cn1)C(=O)N[C@@H](Cc1ccc(O)cc1)C(=O)N[C@@H](Cc1ccc(O)cc1)C(=O)N[C@@H](CC(N)=O)C(=O)N[C@@H](Cc1c[nH]c2ccccc12)C(=O)N[C@@H](CC(C)C)C(=O)N[C@H](C(=O)N[C@@H](CCCNC(=N)N)C(=O)N[C@@H](CCC(N)=O)C(=O)N[C@@H](CCCNC(=N)N)C(=O)N[C@@H](Cc1ccc(O)cc1)C(N)=O)[C@@H](C)O)C(C)C
B5: Compound 218 (peptide)
peptide: Isovaleryl-APEK([AEEA-AEEA-γGlu-C18 diacid])PEEDSSPEELQRYYVALRHYYNWLTRQRY-NH2
SMILES: CC(C)CC(=O)N[C@@H](C)C(=O)N1CCC[C@H]1C(=O)N[C@@H](CCC(=O)O)C(=O)N[C@@H](CCCCNC(=O)COCCOCCNC(=O)COCCOCCNC(=O)CC[C@H](NC(=O)CCCCCCCCCCCCCCCCC(=O)O)C(=O)O)C(=O)N1CCC[C@H]1C(=O)N[C@@H](CCC(=O)O)C(=O)N[C@@H](CCC(=O)O)C(=O)N[C@@H](CC(=O)O)C(=O)N[C@@H](CO)C(=O)N[C@@H](CO)C(=O)N1CCC[C@H]1C(=O)N[C@@H](CCC(=O)O)C(=O)N[C@@H](CCC(=O)O)C(=O)N[C@@H](CC(C)C)C(=O)N[C@@H](CCC(N)=O)C(=O)N[C@@H](CCCNC(=N)N)C(=O)N[C@@H](Cc1ccc(O)cc1)C(=O)N[C@@H](Cc1ccc(O)cc1)C(=O)N[C@H](C(=O)N[C@@H](C)C(=O)N[C@@H](CC(C)C)C(=O)N[C@@H](CCCNC(=N)N)C(=O)N[C@@H](Cc1c[nH]cn1)C(=O)N[C@@H](Cc1ccc(O)cc1)C(=O)N[C@@H](Cc1ccc(O)cc1)C(=O)N[C@@H](CC(N)=O)C(=O)N[C@@H](Cc1c[nH]c2ccccc12)C(=O)N[C@@H](CC(C)C)C(=O)N[C@H](C(=O)N[C@@H](CCCNC(=N)N)C(=O)N[C@@H](CCC(N)=O)C(=O)N[C@@H](CCCNC(=N)N)C(=O)N[C@@H](Cc1ccc(O)cc1)C(N)=O)[C@@H](C)O)C(C)C
B6: Compound 216 (peptide)
peptide: Isovaleryl-APAK([AEEA-AEEA-γGlu-C18 diacid])PEEDASPEELEQYYVSLRHYYNWLTRQRY-NH2
SMILES: CC(C)CC(=O)N[C@@H](C)C(=O)N1CCC[C@H]1C(=O)N[C@@H](C)C(=O)N[C@@H](CCCCNC(=O)COCCOCCNC(=O)COCCOCCNC(=O)CC[C@H](NC(=O)CCCCCCCCCCCCCCCCC(=O)O)C(=O)O)C(=O)N1CCC[C@H]1C(=O)N[C@@H](CCC(=O)O)C(=O)N[C@@H](CCC(=O)O)C(=O)N[C@@H](CC(=O)O)C(=O)N[C@@H](C)C(=O)N[C@@H](CO)C(=O)N1CCC[C@H]1C(=O)N[C@@H](CCC(=O)O)C(=O)N[C@@H](CCC(=O)O)C(=O)N[C@@H](CC(C)C)C(=O)N[C@@H](CCC(=O)O)C(=O)N[C@@H](CCC(N)=O)C(=O)N[C@@H](Cc1ccc(O)cc1)C(=O)N[C@@H](Cc1ccc(O)cc1)C(=O)N[C@H](C(=O)N[C@@H](CO)C(=O)N[C@@H](CC(C)C)C(=O)N[C@@H](CCCNC(=N)N)C(=O)N[C@@H](Cc1c[nH]cn1)C(=O)N[C@@H](Cc1ccc(O)cc1)C(=O)N[C@@H](Cc1ccc(O)cc1)C(=O)N[C@@H](CC(N)=O)C(=O)N[C@@H](Cc1c[nH]c2ccccc12)C(=O)N[C@@H](CC(C)C)C(=O)N[C@H](C(=O)N[C@@H](CCCNC(=N)N)C(=O)N[C@@H](CCC(N)=O)C(=O)N[C@@H](CCCNC(=N)N)C(=O)N[C@@H](Cc1ccc(O)cc1)C(N)=O)[C@@H](C)O)C(C)C

*1 amine or outer side, *2 acyl side, *3 side chain or, on linkers, in order; H or OH if unused. Side-chain parts run from the residue outwards. The star is where a group is joined. C18 diacid = O=C(O)CCCCCCCCCCCCCCCCC(=O)*; γGlu = O=C(O)[C@H](CCC(=O)[*:2])N[*:1]; Isovaleryl = CC(C)CC(=O)*; AEEA = NCCOCCOCC(=O)O

For orientation: Ki means the dissociation constant of the complex between target and ligand, obtained from inhibition or displacement. A low value points to higher affinity.

The target of this experiment is T1, human neuropeptide Y2 receptor. Put plainly: radioligand competition (125I-PYY(1-36)), hNPY2R membranes. A digest of the protocol: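 Commercial human Y2 receptor membranes (0.5 μg protein/well) were incubated with peptide for 2 h at room temperature in 50 mM HEPES, 5 mM MgCl₂, 1 mM CaCl₂, pH 7.4, with 0.2% ovalbumin. Bound radioligand was separated on PEI-soaked GF/C filters and counted by scintillation, and IC₅₀ came from nonlinear sigmoidal regression.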
On the technique in general: Displacement assays read how much labelled ligand stays bound in the presence of the test substance.
Take B1: the affinity corresponds to a Ki of 6.54 nM.

Turning to B2, the Ki is 0.48 nM. Consider B3, for which the Ki worked out at 7.6 nM. As for B4, affinity was put at a Ki of 2.99 nM.

With B5, the affinity corresponds to a Ki of 1.49 nM. As to B6, the Ki stood at 0.93 nM.

For the origin of these results see patent publication US20210139548A1 (published 2021).
